Experimental findings from paper PMC8488672 (Proceedings of the National Academy of Sciences of the …, 2021) are described below.

Common to all, as to assay: fluorescence microscopy of rEV binding to transfected cells
Test [1] concerns the target gD-GPI CD248 transiently expressed on cells (UniProt Q9HCU0).
The target of test [2] is T1, full-length CD248 transiently expressed on cells (UniProt Q9HCU0 18-757).
T1 sequence: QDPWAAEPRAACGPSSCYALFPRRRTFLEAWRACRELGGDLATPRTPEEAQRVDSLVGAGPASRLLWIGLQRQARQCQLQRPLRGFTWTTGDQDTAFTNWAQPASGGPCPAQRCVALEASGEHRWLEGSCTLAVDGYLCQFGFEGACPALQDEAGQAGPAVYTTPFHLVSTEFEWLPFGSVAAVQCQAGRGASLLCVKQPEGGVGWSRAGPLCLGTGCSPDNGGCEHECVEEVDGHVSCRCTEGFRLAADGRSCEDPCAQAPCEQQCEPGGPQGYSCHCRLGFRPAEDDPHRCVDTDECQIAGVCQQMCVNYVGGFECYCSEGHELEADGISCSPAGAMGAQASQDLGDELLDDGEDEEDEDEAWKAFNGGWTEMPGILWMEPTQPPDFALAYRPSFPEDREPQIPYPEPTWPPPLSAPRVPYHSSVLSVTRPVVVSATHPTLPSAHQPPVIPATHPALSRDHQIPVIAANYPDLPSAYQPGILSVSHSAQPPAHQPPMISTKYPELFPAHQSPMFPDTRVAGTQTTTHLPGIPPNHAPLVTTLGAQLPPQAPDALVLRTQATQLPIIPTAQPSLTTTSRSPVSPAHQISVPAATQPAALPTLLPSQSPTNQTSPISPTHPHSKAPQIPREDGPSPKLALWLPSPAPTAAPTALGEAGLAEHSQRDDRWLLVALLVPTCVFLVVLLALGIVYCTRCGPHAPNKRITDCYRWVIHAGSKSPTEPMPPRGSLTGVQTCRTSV

Test [3] has as its target T2, gD-GPI CD248 transiently expressed on cells (UniProt Q9HCU0 18-687, glycosylphosphatidylinositol (GPI) lipid anchor).
T2 sequence: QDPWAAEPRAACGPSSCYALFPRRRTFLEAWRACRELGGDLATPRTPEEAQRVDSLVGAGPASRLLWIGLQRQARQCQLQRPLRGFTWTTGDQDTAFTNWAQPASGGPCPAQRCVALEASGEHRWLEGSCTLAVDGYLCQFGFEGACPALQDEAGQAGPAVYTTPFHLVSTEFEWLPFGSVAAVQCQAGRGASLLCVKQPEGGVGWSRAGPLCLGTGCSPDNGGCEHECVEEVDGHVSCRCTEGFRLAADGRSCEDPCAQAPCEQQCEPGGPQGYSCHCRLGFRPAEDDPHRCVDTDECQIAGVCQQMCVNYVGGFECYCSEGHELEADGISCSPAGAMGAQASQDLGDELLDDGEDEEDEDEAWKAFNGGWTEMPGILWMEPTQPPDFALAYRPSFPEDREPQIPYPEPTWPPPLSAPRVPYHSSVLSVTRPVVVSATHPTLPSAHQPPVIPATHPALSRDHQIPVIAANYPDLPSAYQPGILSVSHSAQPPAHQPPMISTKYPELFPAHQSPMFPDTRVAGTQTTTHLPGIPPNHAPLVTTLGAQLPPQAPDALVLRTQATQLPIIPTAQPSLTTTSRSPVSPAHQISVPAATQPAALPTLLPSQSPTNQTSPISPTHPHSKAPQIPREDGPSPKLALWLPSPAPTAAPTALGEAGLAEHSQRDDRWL

In test [1], “gD-GPI–tagged LRRC15 ectodomain displayed on rEVs (from UniProt Q8TF66 22-538) (domain or fragment)” yielded a fold binding over cells transfected with an empty vector control above 10 fold.

B1: full-length LRRC15 displayed on rEVs (receptor)
chain: YHGCPSECTCSRASQVECTGARIVAVPTPLPWNAMSLQILNTHITELNESPFLNISALIALRIEKNELSRITPGAFRNLGSLRYLSLANNKLQVLPIGLFQGLDSLESLLLSSNQLLQIQPAHFSQCSNLKELQLHGNHLEYIPDGAFDHLVGLTKLNLGKNSLTHISPRVFQHLGNLQVLRLYENRLTDIPMGTFDGLVNLQELALQQNQIGLLSPGLFHNNHNLQRLYLSNNHISQLPPSVFMQLPQLNRLTLFGNSLKELSPGIFGPMPNLRELWLYDNHISSLPDNVFSNLRQLQVLILSRNQISFISPGAFNGLTELRELSLHTNALQDLDGNVFRMLANLQNISLQNNRLRQLPGNIFANVNGLMAIQLQNNQLENLPLGIFDHLGKLCELRLYDNPWRCDSDILPLRNWLLLNQPRLGTDTVPVCFSPANVRGQSLIIINVNVAVPSVHVPEVPSYPETPWYPDTPSYPDTTSVSSTTELTSPVEDYTDLTTIQVTDDRSVWGMTQAQSGLAIAAIVIGIVALACSLAACVGCCCCKKRSQAVLMQMKAPNEC
Turning to B1, the “fold binding over cells transfected with an empty vector control” value in test [2] and in test [3] was above 10 fold in each case.

B2: gD-GPI–tagged LRRC15 ectodomain displayed on rEVs (domain or fragment)
chain: YHGCPSECTCSRASQVECTGARIVAVPTPLPWNAMSLQILNTHITELNESPFLNISALIALRIEKNELSRITPGAFRNLGSLRYLSLANNKLQVLPIGLFQGLDSLESLLLSSNQLLQIQPAHFSQCSNLKELQLHGNHLEYIPDGAFDHLVGLTKLNLGKNSLTHISPRVFQHLGNLQVLRLYENRLTDIPMGTFDGLVNLQELALQQNQIGLLSPGLFHNNHNLQRLYLSNNHISQLPPSVFMQLPQLNRLTLFGNSLKELSPGIFGPMPNLRELWLYDNHISSLPDNVFSNLRQLQVLILSRNQISFISPGAFNGLTELRELSLHTNALQDLDGNVFRMLANLQNISLQNNRLRQLPGNIFANVNGLMAIQLQNNQLENLPLGIFDHLGKLCELRLYDNPWRCDSDILPLRNWLLLNQPRLGTDTVPVCFSPANVRGQSLIIINVNVAVPSVHVPEVPSYPETPWYPDTPSYPDTTSVSSTTELTSPVEDYTDLTTIQVTDDRSVWGMTQAQSG
modifications: glycosylphosphatidylinositol (GPI) lipid anchor
In the case of B2, the “fold binding over cells transfected with an empty vector control” value in test [2] was above 10 fold.
